Source: article PMC8038994, “RNA and DNA G-quadruplexes bind to human dicer and inhibit its activity”

Experiments:
[1] = target: T1, hDicer PPC cassette (Homo sapiens, UniProt Q9UPY3 753-1068); test: EMSA; EMSA: 20 mM Tris-HCl pH 7.4, 100 mM KCl, 30 min on ice; 5% or 10% native PAGE at 4 C in 1x TBE; G-rich oligos folded in 50 mM KCl; settings: protein: recombinant, tags: N-terminal 6xHis (pMCSG7), label: 5'-32P
T1 sequence: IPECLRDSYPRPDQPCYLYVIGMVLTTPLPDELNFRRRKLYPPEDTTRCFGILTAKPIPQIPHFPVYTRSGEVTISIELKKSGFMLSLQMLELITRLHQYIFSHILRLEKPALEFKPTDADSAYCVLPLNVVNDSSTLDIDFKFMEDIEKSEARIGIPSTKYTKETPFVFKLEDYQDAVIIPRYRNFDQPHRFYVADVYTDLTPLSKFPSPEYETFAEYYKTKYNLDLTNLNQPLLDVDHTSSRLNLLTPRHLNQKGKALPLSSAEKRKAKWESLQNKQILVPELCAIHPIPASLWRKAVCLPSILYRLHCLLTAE

[2] = target: T2, hDicer (Homo sapiens, UniProt Q9UPY3 1-1922); test: EMSA; 100, 250 nM hDicer; EMSA: 20 mM Tris-HCl pH 7.4, 100 mM KCl, 30 min on ice; 5% or 10% native PAGE at 4 C in 1x TBE; G-rich oligos folded in 50 mM KCl; settings: protein: recombinant; label: 5'-32P; G4
[3] = target: T2, hDicer; test: EMSA; 250 nM hDicer; EMSA: 20 mM Tris-HCl pH 7.4, 100 mM KCl, 30 min on ice; 5% or 10% native PAGE at 4 C in 1x TBE; G-rich oligos folded in 50 mM KCl; settings: protein: recombinant; label: 5'-32P; G4 dimer of bimolecular G-quadruplexes (PDB 2M18)

T2 sequence (Q9UPY3 whole entry): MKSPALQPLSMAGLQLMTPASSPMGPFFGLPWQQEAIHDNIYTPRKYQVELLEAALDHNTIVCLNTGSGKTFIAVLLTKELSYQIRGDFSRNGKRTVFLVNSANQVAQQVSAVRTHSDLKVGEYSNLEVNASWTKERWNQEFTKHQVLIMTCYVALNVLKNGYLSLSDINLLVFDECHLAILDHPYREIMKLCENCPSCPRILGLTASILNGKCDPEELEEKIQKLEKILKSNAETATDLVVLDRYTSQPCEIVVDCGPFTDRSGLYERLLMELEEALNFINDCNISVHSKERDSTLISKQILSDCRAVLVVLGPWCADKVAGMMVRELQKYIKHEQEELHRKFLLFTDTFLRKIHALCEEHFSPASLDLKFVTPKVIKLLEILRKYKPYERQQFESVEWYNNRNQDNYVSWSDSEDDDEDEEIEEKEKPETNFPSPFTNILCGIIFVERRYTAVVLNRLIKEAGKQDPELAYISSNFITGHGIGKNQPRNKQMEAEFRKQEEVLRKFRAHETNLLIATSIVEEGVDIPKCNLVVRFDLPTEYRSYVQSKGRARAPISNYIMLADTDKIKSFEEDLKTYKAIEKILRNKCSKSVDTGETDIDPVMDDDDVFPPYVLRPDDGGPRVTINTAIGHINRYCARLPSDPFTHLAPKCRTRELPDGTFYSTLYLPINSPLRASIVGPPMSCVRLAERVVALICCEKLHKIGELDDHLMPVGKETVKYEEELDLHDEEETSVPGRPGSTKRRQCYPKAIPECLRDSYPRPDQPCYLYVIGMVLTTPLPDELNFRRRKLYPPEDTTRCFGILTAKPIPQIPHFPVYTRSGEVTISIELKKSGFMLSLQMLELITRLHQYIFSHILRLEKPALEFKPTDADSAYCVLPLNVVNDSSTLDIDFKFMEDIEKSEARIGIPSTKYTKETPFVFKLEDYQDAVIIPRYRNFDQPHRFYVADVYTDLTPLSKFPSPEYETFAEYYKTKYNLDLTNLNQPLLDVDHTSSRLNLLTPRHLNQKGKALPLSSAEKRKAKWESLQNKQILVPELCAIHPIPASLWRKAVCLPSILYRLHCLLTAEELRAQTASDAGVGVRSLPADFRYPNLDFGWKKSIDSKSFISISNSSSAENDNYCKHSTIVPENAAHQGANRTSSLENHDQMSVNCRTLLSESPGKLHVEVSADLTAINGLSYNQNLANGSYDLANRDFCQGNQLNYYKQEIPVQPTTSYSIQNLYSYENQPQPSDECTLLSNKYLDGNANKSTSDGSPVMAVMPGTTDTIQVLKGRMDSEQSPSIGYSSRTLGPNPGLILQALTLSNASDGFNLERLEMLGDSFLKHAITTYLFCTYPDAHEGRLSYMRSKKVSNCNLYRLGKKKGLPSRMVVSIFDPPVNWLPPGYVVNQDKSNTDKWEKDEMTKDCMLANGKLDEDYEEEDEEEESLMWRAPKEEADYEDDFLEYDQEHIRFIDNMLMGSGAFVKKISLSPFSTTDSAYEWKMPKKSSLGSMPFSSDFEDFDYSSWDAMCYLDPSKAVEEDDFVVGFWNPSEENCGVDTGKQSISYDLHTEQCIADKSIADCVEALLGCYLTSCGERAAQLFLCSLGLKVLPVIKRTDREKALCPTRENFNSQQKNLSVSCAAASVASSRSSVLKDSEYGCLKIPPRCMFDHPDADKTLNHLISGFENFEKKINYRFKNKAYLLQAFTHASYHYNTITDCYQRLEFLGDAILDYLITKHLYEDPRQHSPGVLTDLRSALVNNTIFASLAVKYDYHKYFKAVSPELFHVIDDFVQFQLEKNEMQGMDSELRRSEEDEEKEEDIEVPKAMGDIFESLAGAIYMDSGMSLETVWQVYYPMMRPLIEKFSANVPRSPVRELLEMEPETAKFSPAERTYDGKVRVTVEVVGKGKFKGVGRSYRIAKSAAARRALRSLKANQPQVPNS

GGGGUUUUGGGG (structured_RNA) [G4U4G4]
Kd ([1]; G4): ~10 nM

UCGAAGUAUUCCGCGUACGUG (ssRNA) [LIN21]
Kd [1]: ~46 nM

B1: pre-mir-21 (structured_RNA)
RNA: AGCUUAUCAGACUGAUGUUGACUGUUGAAUCUCAUGGCAACACCAGUCGAUGGGCUGU
Kd ([1]; hairpin): ~205 nM

GGGGTTTTGGGG (structured_DNA) [G4T4G4]
Kd ([1]; G4 bimolecular, 2 strand copies (PDB 1JPQ)): ~369 nM

GGAGGUUUUGGAGG (structured_RNA) [QU14]
binding result [2]: binds

GGGUUAGGGU (structured_RNA) [TER10]
binding result [3]: binds
